Results on one molecule are retold here after patent publication US6710165B2, “IgE-dependent histamine-releasing factor-binding peptides” (priority 2000, dated 2004).

Bounds are passed on as bounds.

In data set [1] the test system is (Na,K)ATPase large cytoplasmic loop. As to the kind of experiment: Coimmunoprecipitation in COS-7 cells. The class given is binding. Particulars: HA-tagged HRF. The method, then: Subsequently, to examine such interaction in mammalian cells, COS-7 cells were grown in DMEM^+ culture (Dulbeccos modified Eagles medium containing 10% fetal bovine serum, 100 units/ml penicillin and 100 units/ml streptomycin). The cells were transfected with N-terminal HA-tagged HRF constructs inserted to pCDNAneo vector (Invitrogen). COS-7 cell extracts were immunoprecipitated according to the method of Florkiewicz, et al. (1998). To detect the interactive protein, rabbit polyclonal anti-(Na,K)ATPase antibodies were added thereto.

In data set [2] the test system is PC12 cells. The experiment in a line: Inhibition of HRF-stimulated dopamine release by HRF-binding peptide. The class given is cell-based. The note with it: 15 μg/ml of HRF. On the procedure: In order to confirm whether the peptides blocking histamine release by HRF also block neurotransmitters release in nerve cells, the peptide of SEQ ID No. 14 (p2) was tested for its effects on dopamine release stimulated by HRF according to the substantially same procedure as in Example 16.

In a further data set the test system is RBL-2H3 cells. The experiment in a line: Histamine release by HRF (RIA). The class given is cell-based. The note with it: IgE-sensitized RBL-2H3 cells, 20 μg/ml recombinant HRF. The method, then: The full-length rat HRF sequence amplified by PCR was cloned in pRSET-A vector and then, overexpressed in E. coli. The expressed recombinant protein was purified using His-bound Ni column (Novagen) and used for stimulation of RBL-2H3 cells. RBL-2H3 cells were grown in 24-well plate at 1×10^6 cells, sensitized with rat IgE antibody (0.2 μg/ml, Serotec) for 45˜60 minutes and treated with 20 μg/ml of the recombinant HRF protein and the inhibitors as used above, respectively. The obtained sample was prepared to acylated histamine using RIA-analysis kit (Immunotech, France) and competitively bound to ^125I-acylated histamine and monoclonal antibodies. The sample was analyzed by γ-counter.

In data set [3] the test system is PC12 cells. The experiment in a line: [3H]-dopamine release by HRF. The class given is cell-based. The method, then:
It was examined whether or not HRF functions as the inhibitor of (Na,K)ATPase enzyme to stimulate neurotransmitters release. For this purpose, HRF was added to the culture solution of PC12 cells (Abu-Raya, et al., 1999) and then, changes in [^3H]-labeled dopamine release induced in basal and K^+-depolarized state by addition of HRF were measured. PC12 cells from passage numbers 5 to 15 were cultured in RPMI-1640 medium containing 10% horse serum, 5% fetal bovine serum, penicillin (100 U/ml) and streptomycin (100 μg/ml) with the supply of 5% CO2 at 37° C.
To measure [^3H]-dopamine release, one day prior to the experiment, the cells ([…]) were cultured in 12-well dish coated with poly-L-lysine (10 μg/ml). The fresh medium containing [^3H]-dopamine (0.5 μCi/ml) was loaded thereto and then, the cells were further cultured at 37° C. for 3 hours. They were washed 2 or 3 times with 1 ml of PBS(1×) per well. To Krebs Ringer (KR) buffer (125 mM NaCl, 5 mM KCl, 2 mM CaCl2, 10 mM HEPES, 1.2 mM MgSO4, 1.2 mM KH2PO4, 6 mM glucose, 5 mM NaHCO3), ascorbic acid (0.2 mg/ml), pargyline (0.6 mg/ml) and despiramine (2 μM) were added. Each 1 ml of the mixture was loaded with HRF and the reaction was proceeded at 37° C. for 20 minutes. The release in the depolarization state was measured in KR buffer containing 50 mM KCl, and in Ca^2+-free medium, was measured in KR buffer prepared by removal of CaCl2 with the addition of 0.5 mM EGTA.
Upon completion of the reaction, the radioactivity of the released dopamine was measured after centrifuging the culture solution at 4° C., 1,000×g for 10 minutes. The cells were solubilized with 0.5 N NaOH and then, the radioactivity within the tissue was measured. The release rate (%) of dopamine was calculated by [radioactivity of the supernatant/(radioactivity of the supernatant+radioactivity within the tissue)×100].
As compared with the increase in basal release, the increase in K^+-stimulated release was shifted to left, but the extent thereof was relatively small.

B1: HRF: recombinant full-length rat HRF overexpressed in E. coli; protein consisting of 172 amino acids (protein)
chain: MIIYRDLISHDELFSDIYKIREIADGLCLEVEGKMVSRTEGAIDDSLIGGNASAEGPEGEGTESTVVTGVDIVMNHHLQETSFTKEAYKKYIKDYMKSLKGKLEEQKPERVKPFMTGAAEQIKHILANFNNYQFFIGENMNPDGMVALLDYREDGVTPFMIFFKDGLEMEKC
modifications: left off: small tags and cut ends
notes: recombinant full-length rat HRF overexpressed in E. coli; protein consisting of 172 amino acids
On to B1, for which, in data set [1], the “interaction with (Na,K)ATPase large cytoplasmic loop, coimmunoprecipitation” value was “interacted with (Na,K)ATPase large cytoplasmic loop”. In addition, the “increase of dopamine release” value with PC12 cells [2] is reported as “about 110%”. Further, in the data set on RBL-2H3 cells, the histamine release entry is recorded as “histamine was released by HRF”. In addition, the “HRF concentration at which dopamine release was steeply increased and the cells detached and reached to death” value in the data set on PC12 cells [3] was at least 30 µg. In addition, the “K+-stimulated dopamine release in depolarization” value in the data set on PC12 cells [3] (50 mM KCl) is “dose-dependently increased K^+-stimulated dopamine release”. Besides, in the data set with PC12 cells [3] (basal state), the “basal release of dopamine” value was “dose-dependently increased the basal release of dopamine”. Also, the “dopamine release at HRF 10 μg” value in the data set with PC12 cells [3] (basal, HRF 10 μg) was “increased to the extent similar to the K^+-stimulated release in depolarization”.
